This experiment concerns the target Aβ1-40 fibrils (Homo sapiens (Human)) (UniProt P05067). As to the kind of experiment: saturation radioligand binding to Aβ fibrils in PBS, RT 90 min, Centricon 100 kDa filtration.

Square brackets hold non-standard residues; d marks the D form. Ends that are not written are not given here.

Sequence of Aβ1-40 fibrils (Homo sapiens (Human)) (P05067 672-711 limits assumed): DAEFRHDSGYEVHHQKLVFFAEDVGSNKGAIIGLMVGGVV

B1: 99mTc-peptide (technetium-99m-labeled BBB permeant Aβ-targeted peptide KKLVFFAεKGC) (peptide)
peptide: [dK][dK][dL][dV][dF][dF][dA]KG[dC]
modifications: not fully specified (residue 8); printed as KKLVFFAεKGC; also: 99mTc chelated by εKGC (N3S core)
By Kd is commonly meant a measure of binding affinity in units of concentration. A higher Kd goes with weaker binding. In the case of B1, the Kd is 352 nM.
